From the supplement of paper PMC7877785
± gives the uncertainty stated by the source.

Assay: self-splicing fitness, log relative to wild type (ln ratio); higher = more splicing; Tetrahymena group I intron in knt gene, E. coli kanamycin selection, DiMSum; sequences stand for … in CUCUCU…GGAGGGAAAAGUUAUCAGGCAUGCACCUGGUAGCUAGUCUUUAAACCAAUAGAUUGCAUCGGUUUAAAAGGCAAGACCGUCAAAUUGCGGGAAAGGGGUCAACAGCCGUUCAGUACCAAGUCUCAGGGGAAACUUUGAGAUGGCCUUGCAAAGGGUAUGGUAAUAAGCUGACGGACAUGGUCCUAACCACGCAGCCAAGUCCUAAGUCAACAGAUCUUCUGUUGAUAUGGAUGCAGUUCACAGACUAAAUGUCGGUCGGGGAAGAUGUAUUCUUCUCAUAAGAUAUAGUCGGACCUCUCCUUAAUGGGAGCUAGCGGAUGAAGUGAUGCAACACUGGAGCCGCUGGGAACUAAUUUGUAUGCGAAAGUAUAUUGAUUAGUUUUGGAGUACUCGUGGUCG
Outline: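 Pooled colonies went to amplicon sequencing on an Illumina HiSeq 2500 after six replicate transformations. The plates were LB agar with 100 μg/mL carbenicillin, 50 μM IPTG and 0.2% rhamnose, with or without 25 μg/mL kanamycin, incubated overnight at 37°C or 30°C. The E. coli BL21(DE3) library had all eight P1ex-region intron nucleotides randomised, the intron placed in the knt kanamycin-resistance gene on pET-22b(+). DiMSum fitness is the error-weighted combination of replicate fold changes, kanamycin against none, normalised to wild type.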

Sequence	self-splicing fitness (ln) (30 °C)	self-splicing fitness (ln) (37 °C)
GGUAAGCAAUAUUACGGGGG	-3.98 ± 0.46	-3.13 ± 0.2
GGUAAGCAAUAUUACGGUAA	-1.6 ± 0.17	-0.53 ± 0.14
GGUAAGCAAUAUUACGGUCC	-1.57 ± 0.34	
GGUAAGCAAUAUUACGUCUA	-0.569 ± 0.1	-0.562 ± 0.1
GGUAAGCAAUAUUACGUGCC	-3.17 ± 0.39	-3.07 ± 0.38
GGUAAGCAAUAUUACGUGCG	-1.12 ± 0.12	-0.227 ± 0.12
GGUAAGCAAUAUUACGUGCU	-2.24 ± 0.18	-1.36 ± 0.2
GGUAAGCAAUAUUACGUUAA	-2.57 ± 0.29	-1.37 ± 0.2
GGUAAGCAAUAUUACGUUGC	-3.3 ± 0.32	-2.95 ± 0.4
GGUAAGCAAUAUUACGUUUA	-2.68 ± 0.17	-0.278 ± 0.11
GGUCAGCAAUAUUACGAAAU	-1.15 ± 0.097	0.351 ± 0.12
GGUCAGCAAUAUUACGAACU	-0.446 ± 0.25	-1.74 ± 0.21
GGUCAGCAAUAUUACGACUU	-0.64 ± 0.081	-1.09 ± 0.087
GGUCAGCAAUAUUACGAGCA	-0.762 ± 0.32	
GGUCAGCAAUAUUACGAGUA	-2.09 ± 0.18	-1.32 ± 0.14
GGUCAGCAAUAUUACGCCAG	-3.3 ± 0.47	-3.3 ± 0.4
GGUCAGCAAUAUUACGCGCU		-2.13 ± 0.15
GGUCAGCAAUAUUACGCUAA	-1.1 ± 0.095	0.512 ± 0.13
GGUCAGCAAUAUUACGGAAA	-1.22 ± 0.11	-0.845 ± 0.11
GGUCAGCAAUAUUACGGGCA	-0.684 ± 0.1	-0.119 ± 0.11
GGUCAGCAAUAUUACGGUCG	-0.085 ± 0.066	0.661 ± 0.09
GGUCAGCAAUAUUACGGUCU	-1.28 ± 0.12	-0.217 ± 0.13
GGUCAGCAAUAUUACGGUUG	-1.07 ± 0.1	-0.43 ± 0.12
GGUCAGCAAUAUUACGUACG	0.123 ± 0.08	-0.609 ± 0.082
GGUCAGCAAUAUUACGUAUG	-1.66 ± 0.085	0.0829 ± 0.1

Sequence	self-splicing fitness (ln) (30 °C)	self-splicing fitness (ln) (37 °C)
GGUCAGCAAUAUUACGUGAU	-3.88 ± 0.22	-2.14 ± 0.11
GGUCAGCAAUAUUACGUGUA	-0.892 ± 0.071	-0.855 ± 0.082
GGUCAGCAAUAUUACGUGUC	-0.998 ± 0.12	-0.0483 ± 0.13
GGUCAGCAAUAUUACGUUCA	-0.169 ± 0.13	-0.487 ± 0.13
GGUCAGCAAUAUUACGUUCG	-0.853 ± 0.093	0.373 ± 0.13
GGUGAGCAAUAUUACGAAAA	-2.57 ± 0.32	-2.66 ± 0.38
GGUGAGCAAUAUUACGACCA	-1.21 ± 0.25	-0.616 ± 0.31
GGUGAGCAAUAUUACGACCU	-2.12 ± 0.26	-2.52 ± 0.49
GGUGAGCAAUAUUACGACUG	-0.488 ± 0.11	0.309 ± 0.13
GGUGAGCAAUAUUACGAGAU		-2.44 ± 0.24
GGUGAGCAAUAUUACGAGGA	-1.95 ± 0.39	-2.02 ± 0.33
GGUGAGCAAUAUUACGAUUU	-1.35 ± 0.23	-0.612 ± 0.25
GGUGAGCAAUAUUACGCCAG	-2.86 ± 0.47	
GGUGAGCAAUAUUACGCCGA	-2.06 ± 0.46	-1.46 ± 0.48
GGUGAGCAAUAUUACGCGUA	-1.95 ± 0.3	-0.54 ± 0.21
GGUGAGCAAUAUUACGGAAU	-2.53 ± 0.39	0.428 ± 0.28
GGUGAGCAAUAUUACGGCUU	-1.7 ± 0.16	-0.614 ± 0.17
GGUGAGCAAUAUUACGGGUC	-1.98 ± 0.11	-2.4 ± 0.15
GGUGAGCAAUAUUACGGUGU	-3.9 ± 0.36	-2.05 ± 0.31
GGUGAGCAAUAUUACGUCGG	-2.16 ± 0.28	-2.5 ± 0.3
GGUGAGCAAUAUUACGUGGG	-3.2 ± 0.23	-2.09 ± 0.23
GGUGAGCAAUAUUACGUUCC	-1.39 ± 0.18	-0.666 ± 0.24
GGUGAGCAAUAUUACGUUCU	0.501 ± 0.28	-1.16 ± 0.27
GGUGAGCAAUAUUACGUUGA	-2.7 ± 0.43	-1.05 ± 0.18
GGUUAGCAAUAUUACGACGC	0.551 ± 0.17	0.289 ± 0.16

Sequence	self-splicing fitness (ln) (30 °C)	self-splicing fitness (ln) (37 °C)
GGUUAGCAAUAUUACGACGU	0.152 ± 0.071	0.738 ± 0.089
GGUUAGCAAUAUUACGACUC	-1.58 ± 0.17	-0.677 ± 0.21
GGUUAGCAAUAUUACGAGGU		-2.43 ± 0.32
GGUUAGCAAUAUUACGCCCG	-3.15 ± 0.49	-1.55 ± 0.48
GGUUAGCAAUAUUACGCCGA	-1.52 ± 0.25	-0.734 ± 0.23
GGUUAGCAAUAUUACGCCUC	-0.314 ± 0.17	-1.4 ± 0.2
GGUUAGCAAUAUUACGCGUU	-1.01 ± 0.17	-0.358 ± 0.19
GGUUAGCAAUAUUACGCUUG	-2.32 ± 0.15	-1.82 ± 0.2
GGUUAGCAAUAUUACGGCCA	-0.0519 ± 0.23	0.0427 ± 0.2
GGUUAGCAAUAUUACGGCUC	-2.05 ± 0.33	-0.541 ± 0.46
GGUUAGCAAUAUUACGGCUG	-0.585 ± 0.16	0.214 ± 0.28
GGUUAGCAAUAUUACGGUAG	-2.79 ± 0.15	-2.28 ± 0.2
GGUUAGCAAUAUUACGUAUC	-0.749 ± 0.12	0.0936 ± 0.15
GGUUAGCAAUAUUACGUCUU	-0.107 ± 0.093	0.227 ± 0.11
GGUUAGCAAUAUUACGUUAC	-2.81 ± 0.19	-1.47 ± 0.23
GGUUAGCAAUAUUACGUUUG	-4.51 ± 0.34	-1.42 ± 0.17
GUAAAGCAAUAUUACGAAGU	-1.47 ± 0.077	-0.327 ± 0.098
GUAAAGCAAUAUUACGACAC	0.603 ± 0.098	0.696 ± 0.12
GUAAAGCAAUAUUACGAGGC	-2.91 ± 0.18	-2.44 ± 0.24
GUAAAGCAAUAUUACGAGUG	-1.69 ± 0.059	-0.403 ± 0.08
GUAAAGCAAUAUUACGCACU	0.0854 ± 0.099	-0.289 ± 0.12
GUAAAGCAAUAUUACGCGAU	-3.23 ± 0.21	-1.42 ± 0.19
GUAAAGCAAUAUUACGGACU	-0.753 ± 0.061	-0.471 ± 0.082
GUAAAGCAAUAUUACGGCAA	-0.0595 ± 0.1	-0.0616 ± 0.16
GUAAAGCAAUAUUACGGCAC	0.217 ± 0.12	0.134 ± 0.15

Sequence	self-splicing fitness (ln) (30 °C)	self-splicing fitness (ln) (37 °C)
GUAAAGCAAUAUUACGGCUG	0.0741 ± 0.066	0.175 ± 0.088
GUAAAGCAAUAUUACGGCUU	-0.183 ± 0.11	0.219 ± 0.14
GUAAAGCAAUAUUACGGGCU	-1.69 ± 0.069	-1.24 ± 0.11
GUAAAGCAAUAUUACGGUAU	-0.495 ± 0.059	0.118 ± 0.084
GUAAAGCAAUAUUACGUACG	-0.843 ± 0.069	-0.015 ± 0.1
GUAAAGCAAUAUUACGUAUA	-1.53 ± 0.11	-0.524 ± 0.14
GUAAAGCAAUAUUACGUCCU	0.164 ± 0.11	0.663 ± 0.16
GUAAAGCAAUAUUACGUCGC	-1.35 ± 0.11	-0.63 ± 0.13
GUAAAGCAAUAUUACGUCGU	-0.978 ± 0.091	-0.114 ± 0.14
GUAAAGCAAUAUUACGUCUC	0.704 ± 0.098	0.129 ± 0.11
GUAAAGCAAUAUUACGUUAC	-1.15 ± 0.14	-1.91 ± 0.21
GUAAAGCAAUAUUACGUUUC	-2.07 ± 0.16	-1.03 ± 0.22
GUACAGCAAUAUUACGACAG	-3.31 ± 0.24	-1.94 ± 0.21
GUACAGCAAUAUUACGAUGG	-3.3 ± 0.17	-2.48 ± 0.17
GUACAGCAAUAUUACGAUUC	-0.318 ± 0.075	-0.0725 ± 0.11
GUACAGCAAUAUUACGCAAU	-2.58 ± 0.21	-1.87 ± 0.27
GUACAGCAAUAUUACGCCAU	-3.46 ± 0.23	-2.32 ± 0.15
GUACAGCAAUAUUACGCGAG	-1.73 ± 0.094	-1.85 ± 0.12
GUACAGCAAUAUUACGCUAC		-2.64 ± 0.48
GUACAGCAAUAUUACGCUAG	-1.88 ± 0.12	-0.374 ± 0.12
GUACAGCAAUAUUACGCUAU	-3.82 ± 0.29	-1.77 ± 0.2
GUACAGCAAUAUUACGCUUC	-2.54 ± 0.19	-2.69 ± 0.26
